Assays:
[1] = target: Mcm4/6/7 complex;DNA primase p48/p58 (mouse;human, UniProt P49717;P97311;Q61881;P49642;P49643 1-862;1-821;1-719;1-420;1-509, |); assay: EMSA; 0.5 mM ATPgS; 2.3 nM Mcm4/6/7, 25-100 nM primase; slower band, proportional to primase; EMSA: 25 mM Tris-HCl pH 7.5, 40 mM Na acetate, 10 mM Mg acetate, 20 mM 2-mercaptoethanol, 0.25 mg/ml BSA, 0.5 mM ATPgS, 30 C 30 min; pull-down: 25 mM Tris-HCl pH 7.5, 100 mM Na acetate, 10 mM Mg acetate, 0.25 mg/ml casein, 1 mM DTT, 0.01% Triton-X, 0.5 mM ATPgS or 1 mM ATP, 30 C 30 min then beads 4 C 30 min; details: protein: recombinant;recombinant; tags: His6-Mcm4; Mcm7-Flag;His6 on p58; p48 untagged; chain copies: 2;2;2;1;1; label: 5'-32P; single strand
Chain of Mcm4/6/7 complex;DNA primase p48/p58 (P49717 whole entry, chain 1 of 3): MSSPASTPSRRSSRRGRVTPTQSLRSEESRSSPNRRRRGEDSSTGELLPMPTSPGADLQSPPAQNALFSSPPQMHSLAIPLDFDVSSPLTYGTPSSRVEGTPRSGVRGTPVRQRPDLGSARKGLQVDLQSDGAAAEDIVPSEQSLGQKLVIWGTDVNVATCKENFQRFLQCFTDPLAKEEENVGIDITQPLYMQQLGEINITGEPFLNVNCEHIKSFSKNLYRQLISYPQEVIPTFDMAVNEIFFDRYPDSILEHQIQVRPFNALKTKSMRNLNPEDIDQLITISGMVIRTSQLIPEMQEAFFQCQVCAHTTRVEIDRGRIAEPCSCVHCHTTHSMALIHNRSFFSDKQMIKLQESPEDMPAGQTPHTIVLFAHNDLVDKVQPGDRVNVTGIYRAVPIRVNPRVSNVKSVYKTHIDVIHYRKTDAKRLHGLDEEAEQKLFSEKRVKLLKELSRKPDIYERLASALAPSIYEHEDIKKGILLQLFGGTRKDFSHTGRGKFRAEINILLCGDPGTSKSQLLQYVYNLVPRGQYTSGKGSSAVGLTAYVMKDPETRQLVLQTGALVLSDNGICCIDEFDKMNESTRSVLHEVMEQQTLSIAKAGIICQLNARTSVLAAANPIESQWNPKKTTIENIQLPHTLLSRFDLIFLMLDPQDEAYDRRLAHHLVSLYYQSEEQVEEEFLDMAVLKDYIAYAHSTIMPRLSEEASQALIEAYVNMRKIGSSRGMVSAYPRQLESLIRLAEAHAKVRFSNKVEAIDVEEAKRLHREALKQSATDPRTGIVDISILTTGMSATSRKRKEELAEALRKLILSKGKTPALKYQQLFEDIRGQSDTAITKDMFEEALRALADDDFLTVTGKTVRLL
Chain of Mcm4/6/7 complex;DNA primase p48/p58 (P97311 whole entry, chain 2 of 3): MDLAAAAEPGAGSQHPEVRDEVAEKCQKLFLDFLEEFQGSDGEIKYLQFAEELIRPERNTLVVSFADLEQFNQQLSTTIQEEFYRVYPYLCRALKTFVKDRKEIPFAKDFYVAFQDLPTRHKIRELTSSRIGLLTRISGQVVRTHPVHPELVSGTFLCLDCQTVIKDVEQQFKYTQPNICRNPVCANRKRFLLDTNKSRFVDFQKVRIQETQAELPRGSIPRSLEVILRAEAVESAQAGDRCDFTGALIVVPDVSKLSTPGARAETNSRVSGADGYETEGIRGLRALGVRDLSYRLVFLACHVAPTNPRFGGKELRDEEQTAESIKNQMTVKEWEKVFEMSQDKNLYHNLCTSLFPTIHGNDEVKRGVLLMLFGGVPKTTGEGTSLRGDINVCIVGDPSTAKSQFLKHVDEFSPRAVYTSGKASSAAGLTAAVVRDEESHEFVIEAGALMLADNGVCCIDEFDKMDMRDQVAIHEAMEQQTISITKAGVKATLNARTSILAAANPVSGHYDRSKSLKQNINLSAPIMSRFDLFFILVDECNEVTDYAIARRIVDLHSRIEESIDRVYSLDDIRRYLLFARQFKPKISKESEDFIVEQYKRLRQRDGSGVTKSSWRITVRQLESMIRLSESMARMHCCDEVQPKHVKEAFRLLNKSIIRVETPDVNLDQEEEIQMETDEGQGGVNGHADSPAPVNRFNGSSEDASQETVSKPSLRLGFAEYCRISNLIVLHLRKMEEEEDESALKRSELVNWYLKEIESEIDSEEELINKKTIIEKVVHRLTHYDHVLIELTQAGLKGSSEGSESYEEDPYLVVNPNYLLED
Chain of Mcm4/6/7 complex;DNA primase p48/p58 (Q61881 whole entry, chain 3 of 3): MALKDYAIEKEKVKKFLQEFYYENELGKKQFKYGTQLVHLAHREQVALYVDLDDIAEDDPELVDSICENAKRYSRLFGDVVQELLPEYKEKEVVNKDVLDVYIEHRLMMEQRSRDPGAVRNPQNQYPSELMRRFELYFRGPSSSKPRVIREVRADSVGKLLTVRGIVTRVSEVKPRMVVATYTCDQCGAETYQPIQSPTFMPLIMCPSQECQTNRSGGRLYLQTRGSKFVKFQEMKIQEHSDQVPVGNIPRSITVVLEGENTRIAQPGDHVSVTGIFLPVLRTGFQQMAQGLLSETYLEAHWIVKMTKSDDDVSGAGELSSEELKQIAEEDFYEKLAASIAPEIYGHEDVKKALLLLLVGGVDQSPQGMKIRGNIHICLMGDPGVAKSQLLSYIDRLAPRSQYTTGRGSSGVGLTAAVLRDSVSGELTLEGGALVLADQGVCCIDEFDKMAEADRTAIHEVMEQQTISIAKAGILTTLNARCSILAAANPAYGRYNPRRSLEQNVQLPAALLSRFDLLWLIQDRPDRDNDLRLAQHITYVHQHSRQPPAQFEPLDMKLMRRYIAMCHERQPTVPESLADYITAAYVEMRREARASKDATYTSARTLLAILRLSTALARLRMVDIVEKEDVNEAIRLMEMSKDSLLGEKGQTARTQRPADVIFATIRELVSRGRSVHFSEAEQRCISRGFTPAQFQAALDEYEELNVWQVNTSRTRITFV

DNA primase p48/p58 = target: T1, DNA primase p48/p58 (human, UniProt P49642;P49643 1-420;1-509); assay: EMSA; 0.5 mM ATPgS; EMSA: 25 mM Tris-HCl pH 7.5, 40 mM Na acetate, 10 mM Mg acetate, 20 mM 2-mercaptoethanol, 0.25 mg/ml BSA, 0.5 mM ATPgS, 30 C 30 min; pull-down: 25 mM Tris-HCl pH 7.5, 100 mM Na acetate, 10 mM Mg acetate, 0.25 mg/ml casein, 1 mM DTT, 0.01% Triton-X, 0.5 mM ATPgS or 1 mM ATP, 30 C 30 min then beads 4 C 30 min; details: protein: recombinant; tags: His6 on p58; p48 untagged; copies: 1;1; label: 5'-32P; single strand
T1 sequence 1: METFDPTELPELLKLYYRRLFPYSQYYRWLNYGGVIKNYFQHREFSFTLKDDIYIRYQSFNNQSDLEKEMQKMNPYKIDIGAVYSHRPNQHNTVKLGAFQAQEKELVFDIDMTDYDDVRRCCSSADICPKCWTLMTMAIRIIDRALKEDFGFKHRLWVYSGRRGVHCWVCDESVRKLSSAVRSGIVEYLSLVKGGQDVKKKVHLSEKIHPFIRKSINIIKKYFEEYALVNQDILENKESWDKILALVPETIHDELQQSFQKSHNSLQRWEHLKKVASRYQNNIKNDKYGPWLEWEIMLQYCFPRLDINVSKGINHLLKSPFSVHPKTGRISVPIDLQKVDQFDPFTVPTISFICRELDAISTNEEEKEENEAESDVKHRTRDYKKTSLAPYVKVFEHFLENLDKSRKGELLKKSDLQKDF
T1 sequence 2: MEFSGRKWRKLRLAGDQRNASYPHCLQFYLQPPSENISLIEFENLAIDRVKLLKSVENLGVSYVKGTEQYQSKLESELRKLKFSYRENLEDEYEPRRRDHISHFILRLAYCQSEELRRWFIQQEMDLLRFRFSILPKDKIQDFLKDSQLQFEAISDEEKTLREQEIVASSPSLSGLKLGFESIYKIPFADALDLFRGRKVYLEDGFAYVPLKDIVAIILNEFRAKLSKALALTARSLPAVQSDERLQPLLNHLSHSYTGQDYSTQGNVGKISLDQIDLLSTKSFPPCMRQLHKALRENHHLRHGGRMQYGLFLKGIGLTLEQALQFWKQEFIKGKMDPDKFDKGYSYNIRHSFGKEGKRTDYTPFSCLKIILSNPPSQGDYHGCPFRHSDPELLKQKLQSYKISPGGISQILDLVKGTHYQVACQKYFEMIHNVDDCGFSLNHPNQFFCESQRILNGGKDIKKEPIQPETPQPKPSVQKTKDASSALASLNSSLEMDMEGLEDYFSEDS

Mcm4/6/7 complex = Mcm4/6/7 complex (mouse, UniProt P49717;P97311;Q61881 1-862;1-821;1-719); assay: EMSA; 0.5 mM ATPgS; 2.3 nM Mcm4/6/7; EMSA: 25 mM Tris-HCl pH 7.5, 40 mM Na acetate, 10 mM Mg acetate, 20 mM 2-mercaptoethanol, 0.25 mg/ml BSA, 0.5 mM ATPgS, 30 C 30 min; pull-down: 25 mM Tris-HCl pH 7.5, 100 mM Na acetate, 10 mM Mg acetate, 0.25 mg/ml casein, 1 mM DTT, 0.01% Triton-X, 0.5 mM ATPgS or 1 mM ATP, 30 C 30 min then beads 4 C 30 min; details: protein: recombinant; tags: His6-Mcm4; Mcm7-Flag; chain copies: 2;2;2; label: 5'-32P; single strand
Chain of Mcm4/6/7 complex (P49717 whole entry, chain 1 of 3): as the sequence (P49717 whole entry, chain 1 of 3) above
Chain of Mcm4/6/7 complex (P97311 whole entry, chain 2 of 3): as the sequence (P97311 whole entry, chain 2 of 3) above
Chain of Mcm4/6/7 complex (Q61881 whole entry, chain 3 of 3): as the sequence (Q61881 whole entry, chain 3 of 3) above

[2] = target: the molecule itself; assay: native gel or EMSA; proteins alone or mixed, 25 mM Tris-HCl pH 7.5, 5 mM magnesium acetate, 20 mM 2-mercaptoethanol, 0.01% Triton X-100, 1 mM ATP, 30°C 15 min; 5% native PAGE at 4°C, silver staining; no DNA
[3] = target: T2, mouse Mcm2∼7 complex (Mcm2/3/4/5/6/7), Flag tag on Mcm5 (mouse, UniProt P97310 1-904; P25206 1-812; P49717 1-862; P49718 1-734; P97311 1-821; Q61881 …); assay: cell-based or functional assay
[4] = target: mouse Mcm4/6/7 complex (His6-Mcm4, Mcm6, Mcm7-Flag) (mouse, UniProt P49717 1-862; P97311 1-821; Q61881 1-719); assay: cell-based or functional assay
Chain of mouse Mcm4/6/7 complex (His6-Mcm4, Mcm6, Mcm7-Flag) (P49717 whole entry, chain 1 of 3): as the sequence (P49717 whole entry, chain 1 of 3) above
Chain of mouse Mcm4/6/7 complex (His6-Mcm4, Mcm6, Mcm7-Flag) (P97311 whole entry, chain 2 of 3): as the sequence (P97311 whole entry, chain 2 of 3) above
Chain of mouse Mcm4/6/7 complex (His6-Mcm4, Mcm6, Mcm7-Flag) (Q61881 whole entry, chain 3 of 3): as the sequence (Q61881 whole entry, chain 3 of 3) above

[5] = target: T2, mouse Mcm2∼7 complex (Mcm2/3/4/5/6/7), …; assay: co-IP; purified Mcm2∼7 (Flag tag on Mcm5) held on anti-Flag M2 antibody agarose beads, mixed with purified primase, His-p48 or GINS, with or without an oligonucleotide, GINS or DNase I; 50 mM Tris-HCl pH 7.5, 100 mM sodium acetate, 5 mM magnesium acetate, 1 mM ATP, 10% glycerol, 0.01% Triton X-100; 2 h at 4°C; eluted with 0.1 M glycine pH 2.8 or boiled; silver or SYPRO staining and Western blotting; details: both partners purified

B1: 132-mer pyrimidine-rich oligonucleotide (ssDNA)
DNA: CCACACATGATTTGTTTGCTCCCTGAAATGATCTATATTTAATATATAATGTATATTCCCTCGGGATTTTTTATTTTGTGTTATTCCACGGCATGAAAAACAAAAAACATTCTTCTCATCCTTGGTCCCTCA
Question: Does B1 bind [1]?
Answer: Result: binds

Question: Does B1 bind (DNA primase p48/p58)?
Answer: Result: binds

Question: Does B1 bind (Mcm4/6/7 complex)?
Answer: Result: binds

B2: human DNA primase p48/p58 hetero-dimeric complex (His-tagged p58, non-tagged p48) (complex)
chain 1: METFDPTELPELLKLYYRRLFPYSQYYRWLNYGGVIKNYFQHREFSFTLKDDIYIRYQSFNNQSDLEKEMQKMNPYKIDIGAVYSHRPNQHNTVKLGAFQAQEKELVFDIDMTDYDDVRRCCSSADICPKCWTLMTMAIRIIDRALKEDFGFKHRLWVYSGRRGVHCWVCDESVRKLSSAVRSGIVEYLSLVKGGQDVKKKVHLSEKIHPFIRKSINIIKKYFEEYALVNQDILENKESWDKILALVPETIHDELQQSFQKSHNSLQRWEHLKKVASRYQNNIKNDKYGPWLEWEIMLQYCFPRLDINVSKGINHLLKSPFSVHPKTGRISVPIDLQKVDQFDPFTVPTISFICRELDAISTNEEEKEENEAESDVKHRTRDYKKTSLAPYVKVFEHFLENLDKSRKGELLKKSDLQKDF
chain 2: MEFSGRKWRKLRLAGDQRNASYPHCLQFYLQPPSENISLIEFENLAIDRVKLLKSVENLGVSYVKGTEQYQSKLESELRKLKFSYRENLEDEYEPRRRDHISHFILRLAYCQSEELRRWFIQQEMDLLRFRFSILPKDKIQDFLKDSQLQFEAISDEEKTLREQEIVASSPSLSGLKLGFESIYKIPFADALDLFRGRKVYLEDGFAYVPLKDIVAIILNEFRAKLSKALALTARSLPAVQSDERLQPLLNHLSHSYTGQDYSTQGNVGKISLDQIDLLSTKSFPPCMRQLHKALRENHHLRHGGRMQYGLFLKGIGLTLEQALQFWKQEFIKGKMDPDKFDKGYSYNIRHSFGKEGKRTDYTPFSCLKIILSNPPSQGDYHGCPFRHSDPELLKQKLQSYKISPGGISQILDLVKGTHYQVACQKYFEMIHNVDDCGFSLNHPNQFFCESQRILNGGKDIKKEPIQPETPQPKPSVQKTKDASSALASLNSSLEMDMEGLEDYFSEDS
notes: DNA primase small subunit p48, human; DNA primase large subunit p58, human; End of the His tag is read from the printed name His-p58; also called His-p58/p48 complex; His-tagged p48/p58 complex; source: E. coli BL21 (DE3) RIL, purified as previously described [58]; not shown: His tag, N-terminal, kept
Question: Which results are given for B2?
Answer: binding result [2]: binds; RNA primer synthesis by p48/p58 primase on poly(dT) with 100-400 ng of Mcm2∼7 [3]: ~3 fold; RNA primer synthesis by p48/p58 primase on M13 ssDNA with 100-600 ng of Mcm4/6/7 [4]: 4 to 7 fold; RNA primer synthesis by p48/p58 primase on poly(dT) with 100-600 ng of Mcm4/6/7 [4]: ~3 fold

B3: His-tagged p48 alone (human DNA primase p48 single subunit) (natural protein, UniProt P49642 1-420, looked up)
chain: METFDPTELPELLKLYYRRLFPYSQYYRWLNYGGVIKNYFQHREFSFTLKDDIYIRYQSFNNQSDLEKEMQKMNPYKIDIGAVYSHRPNQHNTVKLGAFQAQEKELVFDIDMTDYDDVRRCCSSADICPKCWTLMTMAIRIIDRALKEDFGFKHRLWVYSGRRGVHCWVCDESVRKLSSAVRSGIVEYLSLVKGGQDVKKKVHLSEKIHPFIRKSINIIKKYFEEYALVNQDILENKESWDKILALVPETIHDELQQSFQKSHNSLQRWEHLKKVASRYQNNIKNDKYGPWLEWEIMLQYCFPRLDINVSKGINHLLKSPFSVHPKTGRISVPIDLQKVDQFDPFTVPTISFICRELDAISTNEEEKEENEAESDVKHRTRDYKKTSLAPYVKVFEHFLENLDKSRKGELLKKSDLQKDF
notes: DNA primase small subunit p48, human; End of the His tag is read from the printed name His-p48; also called His-p48; source: E. coli BL21 (DE3) RIL, purified as previously described [58]; not shown: His tag, N-terminal, kept
Question: Does B3 bind [5]?
Answer: Result: binds
